This is an account of results in article PMC3749969.

Assay [1] concerns the target Merkel cell polyomavirus major capsid protein VP1 (native virions, isolate R17b) (Merkel cell polyomavirus (MCV), isolate R17b). Description: co-sedimentation; purified native virions and high-VP2 pseudovirions; SDS-PAGE, SYPRO Ruby stain, densitometry against BSA standards; apparent ratio.
In assay [2] the target is Merkel cell polyomavirus major capsid protein VP1 (pseudovirions, codon-modified gene) (Merkel cell polyomavirus (MCV)). Described as above.

As to “Merkel cell polyomavirus minor capsid protein VP2 (native virions, isolate R17b) (natural protein)”, the stoichiometry N (VP2 per 5 VP1) in assay [1] is 2.
In the case of “Merkel cell polyomavirus minor capsid protein VP2 (pseudovirions, codon-modified gene) (natural protein)”, the stoichiometry N (VP2 per 5 VP1) in assay [2] was 1.4.
